Substitutions are numbered along the chain they refer to. Numbers in names are those of the source.
Key:
[1] = target: Aβ43, P05067
[2] = target: Aβ42, P05067
[3] = target: AβM1-40, P05067
[4] = target: Aβ40, P05067
[5] = target: T1, endogenous fetuin A in human plasma, P02765
T1 chain: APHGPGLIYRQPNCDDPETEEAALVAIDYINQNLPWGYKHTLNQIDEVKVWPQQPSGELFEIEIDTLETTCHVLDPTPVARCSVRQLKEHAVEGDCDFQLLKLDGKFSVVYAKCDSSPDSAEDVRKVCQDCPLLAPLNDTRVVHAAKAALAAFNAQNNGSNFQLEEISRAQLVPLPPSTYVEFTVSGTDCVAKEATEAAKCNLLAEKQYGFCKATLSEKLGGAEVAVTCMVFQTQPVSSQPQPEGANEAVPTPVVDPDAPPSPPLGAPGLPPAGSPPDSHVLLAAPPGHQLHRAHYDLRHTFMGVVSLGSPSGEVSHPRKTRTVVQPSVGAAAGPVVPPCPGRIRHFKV

[6] = target: T2, LPPAG substrate (flow cytometry panel)
T2 chain: LPPAG

[7] = target: T3, Btn-LMVGG
T3 chain: GLMVGGV

[8] = target: T4, Abz-LMVGGK(Dnp)-CONH2
T4 chain: LMVGGK

[9] = target: T5, LPESG substrate (flow cytometry panel)
T5 chain: LPESG

[10] = target: AβM1-42, P05067
AβM1-42, P05067, sequence (P05067 whole entry, looked up, tested part not stated): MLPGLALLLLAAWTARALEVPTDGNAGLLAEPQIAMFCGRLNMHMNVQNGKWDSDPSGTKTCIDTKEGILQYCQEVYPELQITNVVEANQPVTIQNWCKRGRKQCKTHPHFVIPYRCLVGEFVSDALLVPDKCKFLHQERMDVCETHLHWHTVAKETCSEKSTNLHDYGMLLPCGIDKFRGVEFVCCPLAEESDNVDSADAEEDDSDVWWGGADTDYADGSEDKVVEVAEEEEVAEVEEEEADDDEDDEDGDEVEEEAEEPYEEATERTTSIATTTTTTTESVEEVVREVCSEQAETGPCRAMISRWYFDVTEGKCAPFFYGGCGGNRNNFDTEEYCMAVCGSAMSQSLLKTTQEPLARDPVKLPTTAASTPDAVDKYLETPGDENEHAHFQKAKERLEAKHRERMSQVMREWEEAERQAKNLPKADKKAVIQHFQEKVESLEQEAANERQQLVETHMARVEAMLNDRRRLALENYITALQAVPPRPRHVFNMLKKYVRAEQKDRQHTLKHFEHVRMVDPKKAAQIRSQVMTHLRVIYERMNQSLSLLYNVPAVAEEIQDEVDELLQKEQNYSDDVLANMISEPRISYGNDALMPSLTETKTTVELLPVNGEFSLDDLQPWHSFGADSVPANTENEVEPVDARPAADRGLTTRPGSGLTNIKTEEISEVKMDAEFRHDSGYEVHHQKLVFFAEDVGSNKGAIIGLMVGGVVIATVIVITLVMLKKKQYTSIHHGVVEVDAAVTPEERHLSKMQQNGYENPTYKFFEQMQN

[11] = target: T6, Abz-LPESGK(Dnp)-CONH2
T6 chain: LPESGK

[12] = target: T7, purified fetuin A
T7 sequence (P02765 19-300, species assumed, looked up): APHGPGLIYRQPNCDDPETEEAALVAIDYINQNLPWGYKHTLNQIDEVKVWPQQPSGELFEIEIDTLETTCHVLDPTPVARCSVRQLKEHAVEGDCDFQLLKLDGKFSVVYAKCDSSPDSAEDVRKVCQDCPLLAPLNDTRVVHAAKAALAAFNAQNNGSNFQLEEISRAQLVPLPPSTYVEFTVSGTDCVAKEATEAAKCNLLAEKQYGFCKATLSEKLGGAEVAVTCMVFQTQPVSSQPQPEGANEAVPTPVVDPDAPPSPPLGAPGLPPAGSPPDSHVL
T7 sequence (P02765 341-367, species assumed, looked up): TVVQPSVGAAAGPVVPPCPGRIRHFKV

Aβ42, P05067, sequence (P05067 whole entry, looked up): as the sequence (P05067 whole entry, looked up, tested part not stated) above
Aβ40, P05067, sequence (P05067 whole entry, looked up): as the sequence (P05067 whole entry, looked up, tested part not stated) above
Aβ43, P05067, sequence (P05067 whole entry, looked up): as the sequence (P05067 whole entry, looked up, tested part not stated) above
AβM1-40, P05067, sequence (P05067 whole entry, looked up, tested part not stated): as the sequence (P05067 whole entry, looked up, tested part not stated) above

B1: SrtAβ (protein)
chain: MKKWTNRLMTIAGVVLILVAAYLFAKPHIDNYLHDKDKDEKIEQYDKNVKEQASKDKKQQAKPQIPKDKSKVAGYLEIPDADIKEPVYPGPATREQLDRGVCFVDEDESLDDQNISIIGHTALLRPHYQFTNLRAAKLDSIVYFTVGNETRRYKITSICNVRPTAVEVLDEHEGKDRQLTLATCDDYNYETGVWESSKIFVATEVR
modification by the sortase [1]: SrtAβ has been shown to modify Aβ40, Aβ42, and Aβ43 | conversion to transpeptidation product with 200 µM GGGRR (HPLC) [2]: as opposed to 50% when reacted with 200 µM GGGRR | conversion to transpeptidation product with 1 mM GGGRR (HPLC) [2]: 64% of the Aβ42 was converted to the expected product when reacted with 1 mM GGGRR | modification by the sortase [2]: SrtAβ has been shown to modify Aβ40, Aβ42, and Aβ43 | conversion to transpeptidation product with GGGK(Btn) (HPLC) [3]: 82% of the starting AβM1-40 was converted to the desired product | biotinylated product formed in human plasma (streptavidin capture ELISA) [4]: 1.5 µM SrtAβ generating 2.3 µM of biotinylated product from 5 µM Aβ40 in two hours | lowest Aβ40 concentration at which labeling was observed in human plasma (m266 capture ELISA) [4]: labeling of Aβ40 spiked into human plasma at concentrations as low as 5 nM was observed | modification by the sortase [4]: SrtAβ has been shown to modify Aβ40, Aβ42, and Aβ43 | yield of transpeptidation products with glycine nucleophiles (HPLC) [4]: the expected transpeptidation products were observed in yields of 80-88% | activity on fetuin A in human plasma (streptavidin pulldown, Coomassie) [5]: a sortase variant with greatly reduced activity on fetuin A relative to the starting sortase 4S.6 was generated | labeling with GGGK(Btn) in human plasma, Western blot [5]: 4S.6, but not SrtAβ, labels fetuin A | fold change of activity against 4S.6 (flow cytometry, yeast display) [6]: 11-fold reduced activity on LPPAG | change in substrate preference against 4S.6 (flow cytometry) [7]: 1,470-fold change in preference to favor LMVGG [SEQ ID NO: 3] over LPESG [SEQ ID NO: 4] | fold change of activity against 4S.6 (flow cytometry, yeast display) [7]: 28-fold increased activity on LMVGG | substrate preference, LMVGG over LPESG (flow cytometry) [7]: 30-fold preference for LMVGG [SEQ ID NO: 3] over LPESG [SEQ ID NO: 4] | KM [8]: KM=128 µM (95% CI=87 to 198 µM) | kcat [8]: kcat=0.018 s-1 (95% CI=0.015 to 0.023 s-1) | fold change of activity against 4S.6 (flow cytometry, yeast display) [9]: 53-fold reduced activity on LPESG | conversion to transpeptidation product with GGGRR (HPLC) [10]: 64% of the starting AβM1-42 was converted to the desired product | kinetic parameters (HPLC assay) [11]: SrtAβ activity on LPESG [SEQ ID NO: 4] was too low to establish accurate kinetic parameters

B2: SrtAβ reversion mutant R177K (protein)
chain: B1 chain with R177K
reduction of activity against SrtAβ (flow cytometry, yeast display) [7]: 2 fold

B3: SrtAβ reversion mutant C159R (protein)
chain: B1 chain with C159R
reduction of activity against SrtAβ (flow cytometry, yeast display) [7]: 2 fold

B4: SrtAβ reversion mutant R134G (protein)
chain: B1 chain with R134G
reduction of activity against SrtAβ (flow cytometry, yeast display) [7]: 2 fold

B5: SrtAβ reversion mutant A182V (protein)
chain: B1 chain with A182V
reduction of activity against SrtAβ (flow cytometry, yeast display) [7]: 2 fold

B6: SrtA 8.5-H3 (protein)
chain: MKKWTNRLMTIAGVVLILVAAYLFAKPHIDNYLHDKDKDEKIEQYDKNVKEQASKDKKQQARPQIPKDKSKVAGYIEIPDADIKEPVYPGPATREQLDRGVSFVEEDESLDDQNISIIGHTALLRPNYQFTNLRAAKIGSMVYFKVGNETRKYKMTSIRNVKPTAVEVLDEQEGKDRQLTLATCDDYNIETGVWESSKIFVATEVK
labeling with GGGK(Btn) in human plasma, Western blot [5]: Western blot of overnight reaction of SrtA 8.5-H3 (50 µM) and GGGK[SEQ ID NO: 6](Btn) (1 mM) in human plasma shows labeling of endogenous fetuin A | labeling with GGGK(Btn), Western blot [12]: Labeled fetuin A is detected by Western blot | KM [8]: KM=52 µM (95% CI=29 to 103 µM) | kcat [8]: kcat=0.012 s-1 (95% CI=0.009 to 0.017 s-1) | percent of substrate converted to product (HPLC assay for SrtA activity) [8]: converting 10% of M substrate to product in two hours

B7: minimal mutant (4S.6 with S118I, G134R, R159C, K177R, V182A, and R197S mutations) (protein)
chain: QAKPQIPKDKSKVAGYIEIPDADIKEPVYPGPATREQLDRGVSFVEENESLDDQNISIIGHTAIDRPNYQFTNLRAAKKGSMVYFKVGNETRKYKMTSICNVKPTAVEVLDEQKGKDRQLTLATCDDYNVETGVWETSKIFVATEVK
fold change of activity against 4S.6 (flow cytometry) [7]: 4-fold improvement in LMVGG [SEQ ID NO: 3] activity relative to 4S.6 | fold change of activity against SrtAβ (flow cytometry) [7]: 23-fold lower activity than SrtAβ

B8: round 7 consensus sequence (R7) reversion mutant L124D (protein)
chain: B7 chain with R35Y, I64L, K79I, C100R, K114E, R118K, V130F, T137S
fold change of activity against the round 7 consensus sequence (flow cytometry, 100-1000 nM Btn-LMVGG) [7]: L124D (1.1-fold)

B9: round 7 consensus sequence (R7) reversion mutant L123I (protein)
chain: B7 chain with R35Y, D65L, K79I, C100R, K114E, R118K, V130F, T137S
fold change of activity against the round 7 consensus sequence (flow cytometry, 100-1000 nM Btn-LMVGG) [7]: L123I (1.5-fold)

B10: sortase 4S.6 (protein)
chain: B7 chain with I59S, R75G, C100R, R118K, A123V, S138R
labeling with GGGK(Btn) in human plasma, Western blot [5]: 4S.6, but not SrtAβ, labels fetuin A | kinetic parameters [8]: 4S.6 activity on LMVGG [SEQ ID NO: 3] was not detectable | substrate preference, LPESG over LMVGG (flow cytometry) [9]: 49-fold preference for LPESG [SEQ ID NO: 4] over LMVGG [SEQ ID NO: 3] | KM [11]: KM=610 µM (95% CI=90 to 5550 µM) | kcat [11]: kcat=0.36 s-1 (95% CI=0.22 to 0.96 s-1)

B11: round 7 consensus sequence (R7) reversion mutant Y94R (protein)
chain: B7 chain with I64L, D65L, K79I, C100R, K114E, R118K, V130F, T137S
fold change of activity against the round 7 consensus sequence (flow cytometry, 100-1000 nM Btn-LMVGG) [7]: Reversion mutant Y94R showed a 2.3-fold improvement on average across substrate concentrations compared to the round 7 consensus sequence

From patent US20240077502
